Experimental data published in the supplement of paper PMC12042874.
± gives the uncertainty stated by the source.

Experiment: amyloid nucleation score (Sup35N fusion, yeast selection) (log enrichment); library NNK1; higher = more nucleation; inactive = no reads after selection
Method in brief: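 On medium lacking adenine and uracil, psi-negative yeast expressing peptides of 20 random codons fused to Sup35N were grown 7 days at 30°C after a 24-hour induction with 100 μM copper sulfate. Illumina sequencing of input and output plasmid inserts gave the reads, and sequences under 100 input reads were excluded. The nucleation score is the DiMSum log enrichment of output over input reads, centred on the mode score of non-aggregating sequences.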

In order of rising amyloid nucleation score:
1. LVVLLIRTNCVKRKEFGERA  -2.04 ± 2.4
2. KLSDSSLTKCRYSHFYRSSM  -1.99 ± 2.4
3. FGCSSLCTLSTVEE  -1.21 ± 0.64
4. LVFWRLCERHRWLRGFESA  -1.06 ± 1.5
5. DRDASSLGFIFFFGCLEGLT  -0.93 ± 0.76
6. IVGSSQLSYLGLAFSYGVQV  -0.903 ± 1.7
7. LYIMGRLDFIFRWVTGGFDT  -0.838 ± 0.77
8. VQGLIQVSVYDRVAGCWHRI  -0.83 ± 0.66
9. LRDRCTFG  -0.755 ± 0.5
10. SHQSDGNWQMVYWCLLVRFT  -0.709 ± 0.56
11. GLLGGIGRRRTMG  -0.643 ± 0.46
12. RFNREFMSSSVLRSWNDGYG  -0.635 ± 0.62
13. YHIRVAWQFVGADI  -0.535 ± 1
14. VTTYLG  -0.499 ± 0.74
15. LSSAGYQFMFLSSFLGWEVN  -0.492 ± 0.44
16. IRISVAVHVIVMNYMYPYLI  -0.44 ± 1.2
17. ASLAMISRMYSSYLDGMVFS  -0.412 ± 0.91
18. AVSAFSTVKSSFGDGGIGFF  -0.398 ± 0.34
19. GCRGFLIPRMVYS  -0.398 ± 0.97
20. GLNSDGLWLLSLNTRKSRAH  -0.349 ± 1.1
21. WNFLFSCLMLGSSWMACDWQ  -0.305 ± 0.76
22. SDDLGE  -0.301 ± 0.39
23. TVHSLV  -0.276 ± 0.38
24. GDDVRRPVVSVHNSRGYSFG  -0.235 ± 0.32
25. LIGRRGLHYLF  -0.186 ± 1.9
26. HNQCHVKYDYHYL  -0.183 ± 0.78
27. NGADTSSQAF  -0.182 ± 1.3
28. ANGLMGSWSLEARSFRSDVL  -0.179 ± 1.5
29. MYGLLEDERTVCQWKMICVV  -0.157 ± 0.69
30. IDSVQFTLQTASHPRSDDDC  -0.143 ± 0.58
31. DSAIWDKNFSLDMGSGFMHC  -0.125 ± 1.7
32. SYGRLVGTWL  -0.111 ± 0.54
33. IVMCTVGKSLMIAQKDHAWA  -0.109 ± 0.61
34. YTTDREFLPICKDAATRDFL  -0.057 ± 1.1
35. LFVLLQHLAATFYVQVLTSR  -0.028 ± 0.89
36. MYETWFTFRWKLTDI  -0.007 ± 0.39
37. SALYNAGCKLCLFTS  0.004 ± 1.1
38. WNRFRIMQLDITG  0.103 ± 0.22
39. MVSSCWICRALKAYVLQPWV  0.108 ± 0.72
40. IHGSRCVPKSQD  0.201 ± 0.38
41. TIIVDDGWRAYSRLS  0.22 ± 0.71
42. EGTSPHMHSIRFTLSQLPSF  0.236 ± 1.1
43. SRPHTVWDMC  0.245 ± 0.32
44. INGPCLLTYLPLAEVGCCLV  0.25 ± 0.55
45. LFLLEINVSSRIWPSFPKSY  0.257 ± 0.42
46. HLFTGNAYRGTRMGKLVGSH  0.328 ± 0.41
47. LKMEYHVGRNWSLGKSRAPE  0.335 ± 0.92
48. RSCLQGFGIFAMAIMD  0.367 ± 0.79
49. VPNVGYI  0.369 ± 0.54
50. GAGIENPSASVIMKREWEVL  0.382 ± 0.44
51. FRTHRPTIFHFIGMRLRTLA  0.399 ± 0.91
52. EVGMHNMACADSSVCMRSVL  0.472 ± 0.6
53. CWLTRCCITWVIHRVMANLM  0.51 ± 0.84
54. FCSRTRMTICVLCYIHLQGR  0.521 ± 0.29
55. CHYMSHSSWHSWTNRVMRDM  0.531 ± 0.29
56. GLFFNNKYA  0.54 ± 0.84
57. PSPQWYGDDNVTSRWRLLAV  0.548 ± 0.28
58. DTSVFWVKIYIFGSISHWAG  0.606 ± 1
59. GSLLLMGRTMDVYQNRHFFH  0.651 ± 0.28
60. GVGVLLSYSELFDSTIEGPT  0.664 ± 0.59
61. GWYFYG  0.702 ± 0.32
62. APGDWLLSDASAAVGEMVE  0.778 ± 0.81
63. SLRCQFTSLLSMVCGCSLYG  0.807 ± 0.93
64. ESNMGNGSRGIDV  0.821 ± 1.1
65. FVPVKFITIGSYVLHTGSLL  0.834 ± 0.73
66. IYSNEELIMRVVNQY  0.856 ± 0.58
67. VADAPMR  0.944 ± 0.9
68. AIAGSAMVEGAH  0.985 ± 0.77
69. GYPWVV  0.993 ± 0.55
70. GTVSDGMSVIRVKGMRWSDY  1.13 ± 0.73
71. INLCVPPRNVLFIDRCWTVV  1.29 ± 0.3
72. NTTHDGLRCEIRVWSENRRR  1.39 ± 0.3
73. KVLWMSSHLYSATSCCVKRS  1.82 ± 0.34
74. TVSMSMAYHVK  2.27 ± 0.25
75. RVCMLLYCQVKVGTVN  2.3 ± 0.11
76. IRVSFIVQSCILSALEDALN  2.68 ± 0.13
77. YSSNWIMLIIRVMIHFFSSR  3.46 ± 0.17
78. NGTFVLDVRIRSRRSERPLG  4.09 ± 0.06
79. DFSYSNPDFVFLTQYIAYEK  4.43 ± 0.06
80. IRSYHLVFVGM  5.13 ± 0.1
81. LGDVSRYFCCIQGNNYRM  5.51 ± 0.057
82. INMRKYSNTGSGRLIFNFAF  6.039 ± 0.052
83. VWFFQNNVNFSDKQ  8.011 ± 0.045

In the case of FFGFMILNYKFSK, the amyloid nucleation score is reported as “inactive”.
With GSLPIRNTFTWGEL the amyloid nucleation score was “inactive”.
